IntAct's records for PubMed 17113272

B1: Catenin beta-1 (Mus musculus), Q02248 (parent)
chain: MATQADLMELDMAMEPDRKAAVSHWQQQSYLDSGIHSGATTTAPSLSGKGNPEEEDVDTSQVLYEWEQGFSQSFTQEQVADIDGQYAMTRAQRVRAAMFPETLDEGMQIPSTQFDAAHPTNVQRLAEPSQMLKHAVVNLINYQDDAELATRAIPELTKLLNDEDQVVVNKAAVMVHQLSKKEASRHAIMRSPQMVSAIVRTMQNTNDVETARCTAGTLHNLSHHREGLLAIFKSGGIPALVKMLGSPVDSVLFYAITTLHNLLLHQEGAKMAVRLAGGLQKMVALLNKTNVKFLAITTDCLQILAYGNQESKLIILASGGPQALVNIMRTYTYEKLLWTTSRVLKVLSVCSSNKPAIVEAGGMQALGLHLTDPSQRLVQNCLWTLRNLSDAATKQEGMEGLLGTLVQLLGSDDINVVTCAAGILSNLTCNNYKNKMMVCQVGGIEALVRTVLRAGDREDITEPAICALRHLTSRHQEAEMAQNAVRLHYGLPVVVKLLHPPSHWPLIKATVGLIRNLALCPANHAPLREQGAIPRLVQLLVRAHQDTQRRTSMGGTQQQFVEGVRMEEIVEGCTGALHILARDVHNRIVIRGLNTIPLFVQLLYSPIENIQRVAAGVLCELAQDKEAAEAIEAEGATAPLTELLHSRNEGVATYAAAVLFRMSEDKPQDYKKRLSVELTSSLFRTEPMAWNETADLGLDIGAQGEALGYRQDDPSYRSFHSGGYGQDALGMDPMMEHEMGGHHPGADYPVDGLPDLGHAQDLMDGLPPGDSNQLAWFDTDL
partner: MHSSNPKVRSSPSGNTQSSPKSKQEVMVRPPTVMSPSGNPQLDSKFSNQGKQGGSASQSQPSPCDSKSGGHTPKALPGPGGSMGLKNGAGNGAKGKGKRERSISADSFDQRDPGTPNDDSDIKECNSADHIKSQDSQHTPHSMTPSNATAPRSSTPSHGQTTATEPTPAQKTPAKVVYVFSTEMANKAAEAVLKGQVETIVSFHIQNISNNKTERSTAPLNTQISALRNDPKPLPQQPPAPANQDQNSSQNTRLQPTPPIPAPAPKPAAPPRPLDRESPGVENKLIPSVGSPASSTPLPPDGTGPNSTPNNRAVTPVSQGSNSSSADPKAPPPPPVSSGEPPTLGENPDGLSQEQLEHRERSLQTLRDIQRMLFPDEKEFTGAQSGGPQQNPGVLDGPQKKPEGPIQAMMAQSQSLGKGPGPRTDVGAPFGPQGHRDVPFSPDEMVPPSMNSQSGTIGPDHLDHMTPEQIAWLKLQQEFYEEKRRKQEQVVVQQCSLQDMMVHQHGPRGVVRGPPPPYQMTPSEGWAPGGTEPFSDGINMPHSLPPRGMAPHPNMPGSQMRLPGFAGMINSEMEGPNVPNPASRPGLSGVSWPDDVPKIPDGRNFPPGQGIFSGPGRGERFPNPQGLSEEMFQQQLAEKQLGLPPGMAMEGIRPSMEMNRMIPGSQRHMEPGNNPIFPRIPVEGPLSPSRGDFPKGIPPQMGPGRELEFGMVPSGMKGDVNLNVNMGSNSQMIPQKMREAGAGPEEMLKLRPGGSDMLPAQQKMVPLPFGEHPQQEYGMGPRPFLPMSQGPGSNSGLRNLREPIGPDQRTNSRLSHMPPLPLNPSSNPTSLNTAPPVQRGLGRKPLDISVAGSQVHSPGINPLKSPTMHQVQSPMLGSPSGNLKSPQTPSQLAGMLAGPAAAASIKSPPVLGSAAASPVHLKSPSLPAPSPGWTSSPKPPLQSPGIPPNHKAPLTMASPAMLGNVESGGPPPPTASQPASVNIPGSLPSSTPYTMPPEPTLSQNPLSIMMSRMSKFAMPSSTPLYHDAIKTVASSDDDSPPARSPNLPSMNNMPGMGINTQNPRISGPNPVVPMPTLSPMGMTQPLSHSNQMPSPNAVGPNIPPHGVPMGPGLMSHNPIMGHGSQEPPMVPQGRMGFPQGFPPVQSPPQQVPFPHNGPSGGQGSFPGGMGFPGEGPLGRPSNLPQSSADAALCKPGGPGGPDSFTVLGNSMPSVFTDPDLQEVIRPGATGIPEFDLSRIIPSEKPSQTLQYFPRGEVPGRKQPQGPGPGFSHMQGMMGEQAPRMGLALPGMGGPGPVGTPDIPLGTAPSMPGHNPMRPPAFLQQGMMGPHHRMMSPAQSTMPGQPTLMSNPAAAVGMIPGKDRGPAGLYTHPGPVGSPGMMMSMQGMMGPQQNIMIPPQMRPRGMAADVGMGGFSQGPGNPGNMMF
B2: Armadillo segment polarity protein (Drosophila melanogaster (Fruit fly)), P18824 (parent)
chain: MSYMPAQNRTMSHNNQYNPPDLPPMVSAKEQTLMWQQNSYLGDSGIHSGAVTQVPSLSGKEDEEMEGDPLMFDLDTGFPQNFTQDQVDDMNQQLSQTRSQRVRAAMFPETLEEGIEIPSTQFDPQQPTAVQRLSEPSQMLKHAVVNLINYQDDAELATRAIPELIKLLNDEDQVVVSQAAMMVHQLSKKEASRHAIMNSPQMVAALVRAISNSNDLESTKAAVGTLHNLSHHRQGLLAIFKSGGIPALVKLLSSPVESVLFYAITTLHNLLLHQDGSKMAVRLAGGLQKMVTLLQRNNVKFLAIVTDCLQILAYGNQESKLIILASGGPNELVRIMRSYDYEKLLWTTSRVLKVLSVCSSNKPAIVDAGGMQALAMHLGNMSPRLVQNCLWTLRNLSDAATKVEGLEALLQSLVQVLGSTDVNVVTCAAGILSNLTCNNQRNKATVCQVGGVDALVRTIINAGDREEITEPAVCALRHLTSRHVDSELAQNAVRLNYGLSVIVKLLHPPSRWPLIKAVIGLIRNLALCPANHAPLREHGAIHHLVRLLMRAFQDTERQRSSIATTGSQQPSAYADGVRMEEIVEGTVGALHILARESHNRALIRQQSVIPIFVRLLFNEIENIQRVAAGVLCELAADKEGAEIIEQEGATGPLTDLLHSRNEGVATYAAAVLFRMSEDKPQDYKKRLSIELTNSLLREDNNIWANADLGMGPDLQDMLGPEEAYEGLYGQGPPSVHSSHGGRAFHQQGYDTLPIDSMQGLEISSPVGGGGAGGAPGNGGAVGGASGGGGNIGAIPPSGAPTSPYSMDMDVGEIDAGALNFDLDAMPTPPNDNNNLAAWYDTDC
partner: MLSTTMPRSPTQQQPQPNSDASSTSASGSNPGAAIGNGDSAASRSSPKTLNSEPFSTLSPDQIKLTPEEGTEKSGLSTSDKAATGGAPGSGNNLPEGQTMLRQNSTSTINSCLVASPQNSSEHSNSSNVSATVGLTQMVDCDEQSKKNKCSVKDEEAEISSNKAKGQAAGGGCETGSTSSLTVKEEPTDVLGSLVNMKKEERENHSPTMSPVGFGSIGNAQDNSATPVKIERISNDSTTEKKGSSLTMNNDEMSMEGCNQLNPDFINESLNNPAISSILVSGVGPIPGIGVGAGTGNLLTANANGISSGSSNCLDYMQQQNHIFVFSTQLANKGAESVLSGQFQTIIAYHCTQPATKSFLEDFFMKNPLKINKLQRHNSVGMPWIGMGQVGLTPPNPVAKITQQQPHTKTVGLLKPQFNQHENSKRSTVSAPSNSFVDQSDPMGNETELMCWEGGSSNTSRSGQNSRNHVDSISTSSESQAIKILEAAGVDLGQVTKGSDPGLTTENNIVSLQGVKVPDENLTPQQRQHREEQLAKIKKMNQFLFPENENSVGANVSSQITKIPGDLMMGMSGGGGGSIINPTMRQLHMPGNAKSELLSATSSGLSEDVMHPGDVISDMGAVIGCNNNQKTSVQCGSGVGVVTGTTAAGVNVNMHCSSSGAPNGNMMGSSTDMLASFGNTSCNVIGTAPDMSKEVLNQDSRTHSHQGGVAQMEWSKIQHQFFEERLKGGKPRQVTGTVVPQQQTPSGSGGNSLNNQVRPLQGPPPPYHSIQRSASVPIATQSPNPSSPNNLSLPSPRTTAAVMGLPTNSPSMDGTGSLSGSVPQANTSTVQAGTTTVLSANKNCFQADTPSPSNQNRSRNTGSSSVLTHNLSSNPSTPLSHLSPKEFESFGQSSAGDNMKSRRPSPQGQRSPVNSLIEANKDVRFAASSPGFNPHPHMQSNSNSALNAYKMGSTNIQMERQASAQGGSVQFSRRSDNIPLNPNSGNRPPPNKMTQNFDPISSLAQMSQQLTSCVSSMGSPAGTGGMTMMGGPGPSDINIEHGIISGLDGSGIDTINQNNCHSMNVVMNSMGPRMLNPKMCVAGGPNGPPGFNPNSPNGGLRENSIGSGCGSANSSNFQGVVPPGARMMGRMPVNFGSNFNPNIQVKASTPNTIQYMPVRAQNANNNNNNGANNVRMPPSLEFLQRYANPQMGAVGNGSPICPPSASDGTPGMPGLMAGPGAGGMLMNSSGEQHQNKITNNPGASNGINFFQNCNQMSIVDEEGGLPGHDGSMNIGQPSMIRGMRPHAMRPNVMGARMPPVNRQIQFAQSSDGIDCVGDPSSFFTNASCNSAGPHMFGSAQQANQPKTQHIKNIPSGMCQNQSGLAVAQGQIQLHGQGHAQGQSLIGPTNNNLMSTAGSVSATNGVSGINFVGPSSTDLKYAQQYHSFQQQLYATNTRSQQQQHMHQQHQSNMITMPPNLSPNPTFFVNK

Variants of: B1
Conditions: with bcl9_human BCL9, O00512

Variant | effect of a mutation on the interaction
D164A | disrupting interaction

Variants of: B2
Conditions: with bcl9_drome lgs

Variant | effect of a mutation on the interaction
D172A | disrupting interaction
